# Test results reported in patent US20150239991A1 (GLENMARK PHARMACEUTICALS S A, published 2015).
# Changes are numbered by the printed parent chain. Numbers in names are those of the source. Like-named read-outs stand apart in the source and are kept apart here.
# B1: Anti-hCD19 FAB-Fc S426M/M428G/H433D/N434A (antibody, human IgG1, kappa)
# heavy chain: QVQLVQSGGGVVQPGRSLRLSCAASGVSLPDYGVSWVRQAPGKGLEWVAVIWGSETTYYNSALKSRFTISRDNSKNTLYLQMNSLRAEDTAVYYCAKHYYYGGSYAMDYWGQGTLVTVSSASTKGPSVFPLAPSSKSTSGGTAALGCLVKDYFPEPVTVSWNSGALTSGVHTFPAVLQSSGLYSLSSVVTVPSSSLGTQTYICNVNHKPSNTKVDKKVEPKSCDKTHTCPPCPAPELLGGPSVFLFPPKPKDTLMISRTPEVTCVVVDVSHEDPEVKFNWYVDGVEVHNAKTKPREEQYNSTYRVVSVLTVLHQDWLNGKEYKCKVSNKALPAPIEKTISKAKGQPREPQVYTLPPSRDELTKNQVSLTCLVKGFYPSDIAVEWESNGQPENNYKTTPPVLDSDGSFFLYSKLTVDKSRWQQGNVFSCMVGHEALDAHYTQKSLSLSPGK
# light chain: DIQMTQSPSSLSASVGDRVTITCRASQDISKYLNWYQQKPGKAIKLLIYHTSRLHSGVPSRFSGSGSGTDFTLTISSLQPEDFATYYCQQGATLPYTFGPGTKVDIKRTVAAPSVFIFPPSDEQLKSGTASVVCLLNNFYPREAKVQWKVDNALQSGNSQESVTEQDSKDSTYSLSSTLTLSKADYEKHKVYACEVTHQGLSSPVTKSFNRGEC
# B2: anti-hCD19 FAB-Fc 113 (antibody, human IgG1, kappa)
# heavy: QVQLVQSGGGVVQPGRSLRLSCAASGVSLPDYGVSWVRQAPGKGLEWVAVIWGSETTYYNSALKSRFTISRDNSKNTLYLQMNSLRAEDTAVYYCAKHYYYGGSYAMDYWGQGTLVTVSSASTKGPSVFPLAPSSKSTSGGTAALGCLVKDYFPEPVTVSWNSGALTSGVHTFPAVLQSSGLYSLSSVVTVPSSSLGTQTYICNVNHKPSNTKVDKKVEPKSCDKTHTCPPCPAPELLGGPSVFLFPPKPKDTLMISRTPEVTCVVVDVSHEDPEVKFNWYVDGVEVHNAKTKPREEQYNSTYRVVSVLTVLHQDWLNGKEYKCKVSNKALPAPIEKTISKAKGQPREPQVYTLPPSREEMTKNQVSLTCLVKGFYPSDIAVEWESSGQPENNYNTTPPMLDSDGSFFLYSKLTVDKSRWQQGNIFSCSVMHEALHNRFTQKSLSLSPGK
# light: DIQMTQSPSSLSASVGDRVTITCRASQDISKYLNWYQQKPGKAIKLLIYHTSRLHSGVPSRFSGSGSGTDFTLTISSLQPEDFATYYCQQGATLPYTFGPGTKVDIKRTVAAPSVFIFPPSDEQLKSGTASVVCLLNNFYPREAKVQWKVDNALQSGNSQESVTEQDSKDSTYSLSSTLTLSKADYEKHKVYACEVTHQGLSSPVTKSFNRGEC
# notes: copies: 2 + 2
# B3: anti-hCD19 FAB-Fc 133 (antibody, human IgG1, kappa)
# heavy: B2 heavy with K277Q, N279K, Y303F, A342T
# light: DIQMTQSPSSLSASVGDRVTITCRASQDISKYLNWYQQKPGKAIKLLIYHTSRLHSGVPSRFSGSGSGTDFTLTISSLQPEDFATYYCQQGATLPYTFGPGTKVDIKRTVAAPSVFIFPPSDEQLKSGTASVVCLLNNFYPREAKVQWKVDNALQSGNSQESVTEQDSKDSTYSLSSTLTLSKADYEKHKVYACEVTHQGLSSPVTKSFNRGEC
# notes: copies: 2 + 2
# B4: Anti-HER2 FAB R19G/T57A/Y59A (Fab)
# heavy chain: EVQLVESGGGLVQPGGSLGLSCAASGFNIKDTYIHWVRQAPGKGLEWVARIYPTNGYARAADSVKGRFTISADTSKNTAYLQMNSLRAEDTAVYYCSRWGGDGFYAMDYWGQGTLVTVSSASTKGPSVFPLAPSSKSTSGGTAALGCLVKDYFPEPVTVSWNSGALTSGVHTFPAVLQSSGLYSLSSVVTVPSSSLGTQTYICNVNHKPSNTKVDKKVEPKSC
# light chain: not shown
# notes: also called combination R19G/T57A/Y59A
# B5: Fc M252A/E380A/E382A/Y436A/Q438A (other)
# chain: DKTHTCPPCPAPELLGGPSVFLFPPKPKDTLAISRTPEVTCVVVDVSHEDPEVKFNWYVDGVEVHNAKTKPREEQYNSTYRVVSVLTVLHQDWLNGKEYKCKVSNKALPAPIEKTISKAKGQPREPQVYTLPPSRDELTKNQVSLTCLVKGFYPSDIAVAWASNGQPENNYKTTPPVLDSDGSFFLYSKLTVDKSRWQQGNVFSCSVMHEALHNHATAKSLSLSPGK
# notes: Homo-dimeric human IGHG1 Fc variant, EU numbering
# B6: Fc S254M/E380M/E382L/S426M/M428G (other)
# chain: B5 chain with A32M, S34M, A160M, A162L, S206M, M208G, A216Y, A218Q
# notes: as for B5
# B7: Fc S426M/M428G/H433D/N434A (other)
# chain: B5 chain with A32M, A160E, A162E, S206M, M208G, H213D, N214A, A216Y, A218Q
# notes: as for B5
# What was measured:
# human FcRn [1] = target: T1, human FcRn (human, UniProt P55899 24-297; P61769 21-119); experiment: SPR on human FcRn at pH 6.0, steady state KD expressed as ratio to the unmodified IGHG1 control
# T1 construct: range 24-297;range 21-119; Alpha chain non-covalently associated with beta2-microglobulin; used as analyte at pH 6.0; also called human neonatal Fc receptor; soluble form of the extracellular region of the human FcRn
# T1 sequence (P55899 24-297 limits assumed, form in doubt, chain 1 of 2): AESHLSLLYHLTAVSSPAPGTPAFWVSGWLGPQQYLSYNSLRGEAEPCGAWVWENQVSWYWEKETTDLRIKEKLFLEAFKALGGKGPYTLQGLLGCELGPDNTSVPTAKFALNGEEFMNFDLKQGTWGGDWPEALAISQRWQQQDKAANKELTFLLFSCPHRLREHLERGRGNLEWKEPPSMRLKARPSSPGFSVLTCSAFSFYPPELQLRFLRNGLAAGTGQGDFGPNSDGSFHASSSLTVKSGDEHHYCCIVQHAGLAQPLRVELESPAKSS
# T1 sequence (P61769 21-119 limits assumed, form in doubt, chain 2 of 2): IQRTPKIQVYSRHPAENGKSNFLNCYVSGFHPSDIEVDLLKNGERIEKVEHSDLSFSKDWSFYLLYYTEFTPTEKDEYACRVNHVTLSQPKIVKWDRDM
# Method: (§1) Growth medium was PowerCHO2 (Lonza Ltd, Basel, Switzerland). Prior purification, post-production supernatants were conditioned with 0.2M NaH₂PO₄, 0.1M NaCl pH6.0 in order to adjust pH to 6.0. FcRn was purified using human IgG sepharose6 Fast flow (GE Healthcare Europe GmbH, Glattbrugg, Switzerland) and eluted with PBS pH7.4. Measurements were recorded on a BIAcore™ 2000 instrument (GE Healthcare Europe GmbH, Glattbrugg, Switzerland). Each Immunoglobulin variant was immobilized on a CM5 sensor chip (GE Healthcare Europe GmbH, Glattbrugg, Switzerland) via amine coupling using a standard protocol provided by the manufacturer to reach an approximate response of 1500 RUs. […] After 3 min of dissociation, PBS pH7.4 was injected for 1 min at 30 μl/min for surface regeneration. KD values were determined using a steady state affinity model. Equilibrium constants were determined by fitting the steady-state response versus the concentration of human FcRn over a range of concentrations to a 1:1 binding model (stoichiometry (n)=1). Measurements were performed in triplicate, and included zero-concentration samples for referencing. Both Chi2 and residual values were used to evaluate the quality of a fit between the experimental data and individual binding models.
# To fit this purpose, each homo-dimeric immunoglobulin was directly coupled onto a CM5 sensor chip. A soluble form of the extracellular region of the human FcRn consisting of its alpha chain non-covalently associated with beta2-microglobulin protein was prepared and used as analyte.
# human FcRn [2] = target: T1, human FcRn; experiment: SPR (BIAcore 2000): immunoglobulin amine-coupled to a CM5 chip, human FcRn injected as analyte at pH 6.0, steady state affinity model
# Method: as §1
# To fit this purpose, each homo-dimeric immunoglobulin was directly coupled onto a CM5 sensor chip. […]
# MabSelect™ Protein A = target: T2, MabSelect™ Protein A (Staphylococcus aureus, UniProt P38507 37-327); experiment: Protein A gradient mode chromatography (HiTrap MabSelect column), A280 trace against pH gradient
# T2 construct: also called HiTrap™ MabSelect™ Protein A column; MabSelect™ resin
# Protein G [3] = target: T3, Protein G (group C and G Streptococci, UniProt P19909 303-427); experiment: Protein G gradient mode chromatography (HiTrap Protein G HP column), A280 trace against pH gradient
# T3 construct: Two commercial resins used (Sepharose 4 Fast Flow for capture-elution, HiTrap HP for gradient); also called Protein G Sepharose™ 4 Fast Flow resin; HiTrap™ Protein G HP column
# Protein G [4] = target: T3, Protein G; experiment: as above; remark: listed apart in the source
# Protein G [5] = target: T3, Protein G; experiment: as above; remark: listed apart in the source
binder,measurement,setting,value
B1,KD ratio (IGHG1/mutant),human FcRn [1],0.48
B2,KD ratio (IGHG1/mutant),human FcRn [1],0.76
B3,Kd,human FcRn [2],2680 nM
same,KD ratio (IGHG1/mutant),human FcRn [1],0.73
B4,binding result,MabSelect™ Protein A,no binding
B5,binding result,Protein G [3],no binding
B6,binding result,Protein G [4],no binding
B7,binding result,Protein G [5],no binding
